Biological target: T1, Retinoic acid receptor alpha (RAR-alpha) (UniProt P10276)
T1 sequence: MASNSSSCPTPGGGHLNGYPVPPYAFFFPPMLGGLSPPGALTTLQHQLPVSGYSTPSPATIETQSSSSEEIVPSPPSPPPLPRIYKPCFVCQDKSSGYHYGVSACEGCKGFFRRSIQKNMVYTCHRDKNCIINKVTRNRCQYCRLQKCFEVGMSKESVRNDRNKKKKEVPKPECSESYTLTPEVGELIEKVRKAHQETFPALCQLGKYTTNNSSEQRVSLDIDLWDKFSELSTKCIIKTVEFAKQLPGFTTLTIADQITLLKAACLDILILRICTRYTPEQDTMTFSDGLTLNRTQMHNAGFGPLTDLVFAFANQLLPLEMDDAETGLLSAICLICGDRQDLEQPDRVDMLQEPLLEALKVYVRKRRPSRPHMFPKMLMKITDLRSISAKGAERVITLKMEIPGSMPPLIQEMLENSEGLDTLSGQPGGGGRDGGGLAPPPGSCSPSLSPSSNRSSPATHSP
Experiment: cell_activity

183 bp SmaI fragment of RARb promoter
activity (fold induction) (CV-1 cells, 10^-6 M retinoic acid, reverse orientation 9-fold): 10

NR oligo (45 bp located 24 bp 3' of bRE1)
activity (fold induction) (same as empty DMTV-LUC (2-fold)): 2

From patent publication US5091518
